In patent US20110190270A1, “METHODS OF TREATING THROMBOEMBOLIC DISORDERS” (MONASH UNIVERSITY, priority 2008, published 2011):

Tested on: occlusive blood clot in the carotid artery
Test: carotid artery occlusion model, clot lysis and vascular reperfusion
Format: in vivo, mice
Conditions: regimens A-H of FIGS. 8 and 9, blood flow monitored 60 minutes
Description: Mice were anaesthetised and minor surgery performed to expose to the carotid artery and jugular vein. A Doppler flow probe was placed around the carotid artery to monitor blood flow through this blood vessel, and a catheter placed in the jugular vein to administer drugs. A blood clot was formed in the carotid artery of the mouse through the delivery of a small electric current (4 mA for 1.25 min^g), resulting in complete blockage of blood flow through the vessel (blood flow=0 mls/min), as measured by the flow probe. After vessel blockade was established, various combinations of t-PA, urokinase, heparin, hirudin, HA1077 and Y27632 were administered, using concentrations and regimens indicated (A-H in FIGS. 8 and 9) and examined for their efficacy to dissolve blood clots and restore blood flow. Blood flow was monitored in mice receiving each drug combination for a further 60 minutes, and blood flow measurements recorded using computer software.

B1: t-PA: thrombolytic agent (protein, UniProt P00750 36-562, looked up)
Tissue-type plasminogen …: SYQVICRDEKTQMIYQQHQSWLRPVLRSNRVEYCWCNSGRAQCHSVPVKSCSEPRCFNGGTCQQALYFSDFVCQCPEGFAGKCCEIDTRATCYEDQGISYRGTWSTAESGAECTNWNSSALAQKPYSGRRPDAIRLGLGNHNYCRNPDRDSKPWCYVFKAGKYSSEFCSTPACSEGNSDCYFGNGSAYRGTHSLTESGASCLPWNSMILIGKVYTAQNPSAQALGLGKHNYCRNPDGDAKPWCHVLKNRRLTWEYCDVPSCSTCGLRQYSQPQFRIKGGLFADIASHPWQAAIFAKHRRSPGERFLCGGILISSCWILSAAHCFQERFPPHHLTVILGRTYRVVPGEEEQKFEVEKYIVHKEFDDDTYDNDIALLQLKSDSSRCAQESSVVRTVCLPPADLQLPDWTECELSGYGKHEALSPFYSERLKEAHVRLYPSSRCTSQHLLNRTVTDNMLCAGDTRSGGPQANLHDACQGDSGGPLVCLNDGRMTLVGIISWGLGCGQKDVPGVYTKVTNYLDWIRDNMRP
- clot lysis and re-establishment of blood flow (in words): relatively moderate in its ability to lyse occlusive blood clots
